Assay results as given in patent US20210163545A1.
Where a chain is given by its changes, count along the chain named. Blank lines part the entries; values can stand above or below the binder they belong to.

Columns and labels:
Fab [1] = experiment: static binding capacity for Fab after 0.1 M NaOH for 24 h, relative to SBC of the same particles without alkali treatment
Fab [2] = experiment: static binding capacity: Fab incubated with ligand-immobilized porous particles, eluted at pH 2.5, absorbance

B2: Recombinant immunoglobulin κ chain binding protein KBP4 (protein)
chain: KETPETPEEPKEEVTIKVNLIFADGKTQTATFKGTFEEATAEAFRYADLLAKVNGEYTADLEDGGYTINIKFAGKKETPETPEEPKEEVTIKVNLIFADGKTQTATFKGTFEEATAEAFRYADLLAKVNGEYTADLEDGGYTINIKFAGKKETPETPEEPKEEVTIKVNLIFADGKTQTATFKGTFEEATAEAFRYADLLAKVNGEYTADLEDGGYTINIKFAGKKETPETPEEPKEEVTIKVNLIFADGKTQTATFKGTFEEATAEAFRYADLLAKVNGEYTADLEDGGYTINIKFAGK
SBC retention ratio (%) after alkali treatment (Fab [1]): 49%
SBC without alkali treatment (mg/mL-particles) (Fab [2]): 47

B3: Recombinant immunoglobulin κ chain binding protein KBP2 (protein)
chain: B2 chain with K26R, F44Y, K101R, F119Y, K176R, F194Y, K251R, F269Y
SBC retention ratio (%) after alkali treatment (Fab [1]): 46%
SBC without alkali treatment (mg/mL-particles) (Fab [2]): 59

B4: Recombinant immunoglobulin κ chain binding protein KBP1 (protein)
chain: B2 chain with K17R, F44Y, K92R, F119Y, K167R, F194Y, K242R, F269Y
SBC retention ratio (%) after alkali treatment (Fab [1]): 46%
SBC without alkali treatment (mg/mL-particles) (Fab [2]): 56

B5: Recombinant immunoglobulin κ chain binding protein KBP5 (protein)
chain: B2 chain with F44Y, N54Q, F119Y, N129Q, F194Y, N204Q, F269Y, N279Q
SBC retention ratio (%) after alkali treatment (Fab [1]): 51%
SBC without alkali treatment (mg/mL-particles) (Fab [2]): 63

B6: Recombinant immunoglobulin κ chain binding protein KBP3 (protein)
chain: B2 chain with T35R, F44Y, T110R, F119Y, T185R, F194Y, T260R, F269Y
SBC retention ratio (%) after alkali treatment (Fab [1]): 48%
SBC without alkali treatment (mg/mL-particles) (Fab [2]): 58

Results, then the binder that gave them:

SBC retention ratio (%) after alkali treatment (Fab [1]): 39%
SBC without alkali treatment (mg/mL-particles) (Fab [2]): 60
B1: Recombinant type immunoglobulin κ chain binding protein KBP0 (protein)
chain: B2 chain with F44Y, F119Y, F194Y, F269Y

SBC retention ratio (%) after alkali treatment (Fab [1]): 58%
SBC without alkali treatment (mg/mL-particles) (Fab [2]): 61
B7: Recombinant immunoglobulin κ chain binding protein KBP6 (protein, part only; not given: further domain copies and linkers, part only)
chain, part: KETPETPEEPKEEVTIKVNLIFADGKTQTATFKGTFEEATAEAYRYADLLAKVNAGEYTADLEDGGYTINIKFAGK

SBC retention ratio (%) after alkali treatment (Fab [1]): 73%
SBC without alkali treatment (mg/mL-particles) (Fab [2]): 64
B8: Recombinant immunoglobulin κ chain binding protein KBP7 (protein, part only; not given: further domain copies and linkers, part only)
chain, part: B7 chain, part with A55Y

SBC retention ratio (%) after alkali treatment (Fab [1]): 45%
SBC without alkali treatment (mg/mL-particles) (Fab [2]): 60
B9: Recombinant immunoglobulin κ chain binding protein KBP8 (protein, part only; not given: further domain copies and linkers, part only)
chain, part: KETETPEEPKEEVTIKVNLIFADGKTQTATFKGTFEEATAEAYRYADLLAKVNGEYTADLEDGGYTINIKFAGK

SBC retention ratio (%) after alkali treatment (Fab [1]): 42%
SBC without alkali treatment (mg/mL-particles) (Fab [2]): 60
B10: Recombinant immunoglobulin κ chain binding protein KBP9 (protein, part only; not given: further domain copies and linkers, part only)
chain, part: KETETEEPKEEVTIKVNLIFADGKTQTATFKGTFEEATAEAYRYADLLAKVNGEYTADLEDGGYTINIKFAGK
